Data: publication PMC7308502, “Genome Segregation by the Venus Flytrap Mechanism: Probing the Interaction Between the ParF ATPase and the ParG Centromere Binding Protein” (Frontiers in Molecular Biosciences, 2020)
Blank lines part the entries; values can stand above or below the compound they belong to.

Tests used:
[1] = target: T1, ParF (Salmonella enterica, UniProt Q9KJ83); assay: sedimentation assay of higher-order assembly; assay type: binding; conditions: 2 mM nucleotide, 5 mM MgCl2, 30 mM Tris-HCl pH 8.0, 100 mM KCl, 30 °C
T1 construct: full-length, His-tagged (pET-22b(+)), produced in E. coli BL21(DE3); monomer with ADP, dimer and higher-order with ATP
T1 sequence (Q9KJ83 1-206): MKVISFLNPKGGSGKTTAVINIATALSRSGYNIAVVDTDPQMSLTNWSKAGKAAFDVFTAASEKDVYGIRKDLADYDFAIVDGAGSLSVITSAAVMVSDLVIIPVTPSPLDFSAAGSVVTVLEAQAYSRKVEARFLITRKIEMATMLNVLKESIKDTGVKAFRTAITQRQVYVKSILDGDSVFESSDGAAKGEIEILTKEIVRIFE
Description: sedimentation assay of higher-order assembly on ParF | ATP or non-hydrolyzable ATPγS increased the levels of higher-order assemblies of wild-type ParF

[2] = target: T1, ParF; assay: fluorescence anisotropy titration; assay type: binding; conditions: read-out: apparent Kd; 20 mM HEPES, 150 mM NaCl, 1 mM MgCl2, pH 7.0; 0.9 μM labelled compound; possible hydrolysis during measurement
[3] = target: wild-type ParF, His-tagged, purified (plasmid TP228 (in Escherichia coli)); assay: co-sedimentation
[4] = target: wild-type ParF, His-tagged, purified (plasmid TP228 (in Escherichia coli))
[5] = target: wild-type ParF fused to the T18 or T25 fragment of Bordetella pertussis adenylate cyclase (plasmid TP228 (in Escherichia coli)); assay: two-hybrid

Compound: Nc1ncnc2c1ncn2[C@@H]1O[C@H](COP(=O)(O)OP(=O)(O)OP(=O)(O)O)[C@@H](O)[C@H]1O [ATP]
fold increase in pellet fraction [1]: ~ 2 fold

Compound: Nc1ncnc2c1ncn2[C@@H]1O[C@H](COP(=O)(O)OP(=O)(O)OP(O)(O)=S)[C@@H](O)[C@H]1O [ATPγS]
fold increase in pellet fraction [1]: ~ 2 fold

Compound: CNc1ccccc1C(=O)O[C@H]1[C@@H](O)[C@H](n2cnc3c(N)ncnc32)O[C@@H]1CO[P@@](=O)(O)O[P@](=O)(O)OP(=O)(O)O [MANT-ATP]
Kd [2]: ~500 nM

percent of ParG in the pellet fraction (with ATPγS) [3]: 50%
fold stimulation of ParF ATPase activity by ParG (ParF 1 μM, ParG 0-20 μM, 5 μM ATP) [4]: 20 fold
Compound: ParG, His-tagged, purified (natural protein)

Compound: wild-type ParF fused to the T18 or T25 fragment of Bordetella pertussis adenylate cyclase (natural protein)
β-galactosidase units (β-galactosidase units) [5]: 700

percent of ParF in the pellet fraction (with ParG and ATPγS) [3]: 80%
Compound: wild-type ParF, His-tagged, purified (enzyme)
